# T1: Nop1^83–321 (S. cerevisiae, UniProt P15646 83-321)
# T1 sequence (looked up): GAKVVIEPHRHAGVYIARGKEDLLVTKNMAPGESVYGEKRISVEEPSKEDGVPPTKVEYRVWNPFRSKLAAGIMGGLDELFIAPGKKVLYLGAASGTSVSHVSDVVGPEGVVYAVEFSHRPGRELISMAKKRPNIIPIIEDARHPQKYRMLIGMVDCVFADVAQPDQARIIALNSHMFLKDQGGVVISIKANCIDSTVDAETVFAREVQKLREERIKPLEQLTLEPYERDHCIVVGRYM
# T2: Sc Nop1^83–327 (S. cerevisiae, UniProt P15646 83-327)
# T2 sequence (looked up): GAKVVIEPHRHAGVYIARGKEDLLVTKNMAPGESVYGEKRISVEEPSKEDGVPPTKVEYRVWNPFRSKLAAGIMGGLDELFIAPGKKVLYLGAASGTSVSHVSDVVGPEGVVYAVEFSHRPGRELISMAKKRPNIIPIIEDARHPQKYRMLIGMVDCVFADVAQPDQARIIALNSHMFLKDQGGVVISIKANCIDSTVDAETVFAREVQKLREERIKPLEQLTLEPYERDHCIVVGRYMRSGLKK
# Key:
# Nop1^83–321 = target: T1, Nop1^83–321; assay: SEC
# Sc Nop1^83–327 = target: T2, Sc Nop1^83–327; assay: SEC
binding result (Nop1^83–321),binding result (Sc Nop1^83–327),Binder
binds,,"Sc Nop56^1–166 (domain or fragment, S. cerevisiae, UniProt Q12460 1-166, looked up) MAPIEYLLFEEPTGYAVFKVKLQQDDIGSRLKEVQEQINDFGAFTKLIELVSFAPFKGAAEALENANDISEGLVSESLKAILDLNLPKASSKKKNITLAISDKNLGPSIKEEFPYVDCISNELAQDLIRGVRLHGEKLFKGLQSGDLERAQLGLGHAYSRAKVKFS"
,binds,"Sc Nop56^1–166-L147W/E148F (domain or fragment, S. cerevisiae, UniProt Q12460 1-166, looked up) MAPIEYLLFEEPTGYAVFKVKLQQDDIGSRLKEVQEQINDFGAFTKLIELVSFAPFKGAAEALENANDISEGLVSESLKAILDLNLPKASSKKKNITLAISDKNLGPSIKEEFPYVDCISNELAQDLIRGVRLHGEKLFKGLQSGDWFRAQLGLGHAYSRAKVKFS"
,binds,"Nop56^1–166-Q35A/N39A (domain or fragment, S. cerevisiae, UniProt Q12460 1-166, looked up) MAPIEYLLFEEPTGYAVFKVKLQQDDIGSRLKEVAEQIADFGAFTKLIELVSFAPFKGAAEALENANDISEGLVSESLKAILDLNLPKASSKKKNITLAISDKNLGPSIKEEFPYVDCISNELAQDLIRGVRLHGEKLFKGLQSGDLERAQLGLGHAYSRAKVKFS"

# Source: paper PMC7962484 (RNA, 2021)
